T1: HNE specific peptide GSGSGGGAAPVAAKGGGSGSC (not fully specified)
T1 chain: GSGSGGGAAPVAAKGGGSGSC

B1: recombinant Cathepsin-G enzyme (protein)
chain: IIGGRESRPHSRPYMAYLQIQSPAGQSRCGGFLVREDFVLTAAHCWGSNINVTLGAHNIQRRENTQQHITARRAIRHPQYNQRTIQNDIMLLQLSRRVRRNRNVNPVALPRAQEGLRPGTLCTVAGWGRVSMRRGTDTLREVQLRVQRDRQCLRIFGSYDPRRQICVGDRRERKAAFKGDSGGPLLCNNVAHGIVSYGKSSGVPPEVFTRVSSFLPWIRTTMRS
B2: recombinant Human Neutrophil Elastase (HNE) (protein)
chain: IVGGRRARPHAWPFMVSLQLRGGHFCGATLIAPNFVMSAAHCVANVNVRAVRVVLGAHNLSRREPTRQVFAVQRIFENGYDPVNLLNDIVILQLNGSATINANVQVAQLPAQGRRLGNGVQCLAMGWGLLGRNRGIASVLQELNVTVVTSLCRRSNVCTLVRGRQAGVCFGDSGSPLVCNGLIHGIASFVRGGCASGLYPDAFAPVAQFVNWIDSIIQ

Target: T1, HNE specific peptide …

| Protein | cleavage on the multiplex sensor, Cathepsin-G alone at 100 ng/mL | cleavage on the multiplex sensor, ratio 100 uL Cathepsin-G to 0 uL HNE | cleavage on the multiplex sensor, HNE alone at 100 ng/mL | cleavage on the multiplex sensor, ratio 0 uL Cathepsin-G to 100 uL HNE | detection limit of cleavage in spiked saliva (colorimetric) | detection limit of proteolytic cleavage of the peptide-magnetic bead layer (colorimetric, visible bare gold surface) |
| --- | --- | --- | --- | --- | --- | --- |
| B1 | there was no cleavage seen in the bottom band | there was no reaction seen on the HNE sensor (Bottom band) |  |  |  |  |
| B2 |  |  | maximum reaction was seen in the bottom band containing HNE | maximum cleavage was seen on the HNE sensor (Bottom band) where a golden color change was visible | The limits of detection for both spiked proteases were comparable to those obtained with the purified proteases | detection limit to be as low as 1 pg/mL for HNE |

— patent US10337047
